Data set [1] concerns the target retromer^mRuby (yeast Vps26/Vps29/Vps35 complex labelled with mRuby) (S. cerevisiae, UniProt P40335 1-379; P38759 1-282; P34110 1-944). The data set is described as follows: fluorescence microscopy of recruitment to supported membrane tubes.
The data set “native gel or EMSA” concerns the molecule itself. Nature of the data set: native gel or EMSA. A general note: Mobility shift assays separate free from complexed probe on a gel.

Residue numbers refer to the chain shown, from its start. “And” between values parts separate entries of the source, which are not always exact repeats. Equal values may be shown once.

This is an account of results in publication PMC9841331 (The EMBO Journal, 2023).

B1: SNX-BAR complex (yeast sorting nexins Vps5/Vps17) (complex, S. cerevisiae)
chain 1: MDYEDNLEAPVWDELNHEGDKTQSLVSNSIESIGQISTNEERKDNELLETTASFADKIDLDSAPEWKDPGLSVAGNPQLEEHDNSKADDLINSLAPEQDPIADLKNSTTQFIATRESGGALFTGNANSPLVFDDTIYDANTSPNTSKSISGRRSGKPRILFDSARAQRNSKRNHSLKAKRTTASDDTIKTPFTDPLKKAEKENEFVEEPLDDRNERRENNEGKFTASVEKNILEQVDRPLYNLPQTGANISSPAEVEENSEKFGKTKIGSKVPPTEKAVAFKVEVKDPVKVGELTSIHVEYTVISESSLLELKYAQVSRRYRDFRWLYRQLQNNHWGKVIPPPPEKQSVGSFKENFIENRRFQMESMLKKICQDPVLQKDKDFLLFLTSDDFSSESKKRAFLTGSGAINDSNDLSEVRISEIQLLGAEDAAEVLKNGGIDAESHKGFMSISFSSLPKYNEADEFFIEKKQKIDELEDNLKKLSKSLEMVDTSRNTLAASTEEFSSMVETLASLNVSEPNSELLNNFADVHKSIKSSLERSSLQETLTMGVMLDDYIRSLASVKAIFNQRSKLGYFLVVIENDMNKKHSQLGKLGQNIHSEKFREMRKEFQTLERRYNLTKKQWQAVGDKIKDEFQGFSTDKIREFRNGMEISLEAAIESQKECIELWETFYQTNL
chain 2: MTSAVPYDPYDDLDNNPFAEPQEEDSEPAATTTDGSSSMSEERVGTEQTAASVQDNGTANNIQNGLGEEGNATRSKTSNEHNENQQPSQPSERVILPERSDEKKKYTLLAKVTGLERFGSATGKKENPTIIFDCSTNLPTFRKQQYKNVKKSYEEFHQLFKYLNVAIQESFVPTLPSAYTTFGINSEEDRMKVTRNFQLWFNRLSQDPLIIRNEEVAFFIESDFNTYTPINKSKSLASGLKRKTLKQLAPPYDEITELAEFRPLVKSIYVVSQSLQEKLLRVSRNRKMMVQEENAFGQDFVNLDEHNKLYRRYGKILTAVGDIDSIIATMDMATLYDGLEWIVRDAYAVKEALTNRHFIMRNLVQAQQNSKAKQEQARRFRSRRDINPMKIDEALRQLKAAAKNEQVLTLKLQRITSNMIIERKQWISWYEEWIRSSIKEFTLRKIEYERKKLTLLERVRSDIRKADENGGLSRLGRHAVSNNNSDTSQTLKGDSWTGESNRKSQIPINKIAHTEFDDELFTEDDGYNSQDSDTTSLNARHAASLLGMSTK
In the case of B1, the binding result in data set [1] was “binds”.

B2: retromer^mClover (yeast Vps26/Vps29/Vps35 complex carrying mClover-tagged Vps29), wild-type Vps35 (complex, S. cerevisiae)
chain 1: MSIFFKPPIDIEILFDNEESRKHVDIATRSSNSSYKSMKESLPVYEDGESLGGIVTLRVRDSKKVDHLGIKVSVIGSIDMLKSHGSGNSSSKKVTSSTSSSSSNGSVDVRKNSVDQFLCQSYDLCPAGELQHSQSFPFLFRDLSKRYESYKGKNVDVAYYVKVTVMRKSTDISKIKRFWVYLYNSVTTAPNTLSANETKATTNDIAGGNYAADNASDNTQTKSTQGEAADVNQVLPISHSNNEPKPVRLDIGIENCLHIEFEYAKSQYSLKEVIVGRIYFLLTRLRIKHMELSLITRESSGLQTSNVMTDSTAIRYEIMDGSSVKGETIPIRLFLSGYDLTPNMSCNYFNVKNYLSLVIIDEDGRRYFKQSEITLYRTR
chain 2: MLLLALSDAHIPDRATDLPVKFKKLLSVPDKISQVALLGNSTKSYDFLKFVNQISNNITIVRGEFDNGHLPSTKKDKASDNSRPMEEIPMNSIIRQGALKIGCCSGYTVVPKNDPLSLLALARQLDVDILLWGGTHNVEAYTLEGKFFVNPGSCTGAFNTDWPIVFDVEDSDEAVTSEVDKPTKENQSEDDDAKGGSTGKEQPGSYTPKEGTAGERENENESNVKPENQFKEDEVDMSDSDINGSNSPSFCLLDIQGNTCTLYIYLYVNGEVKVDKVVYEKE
chain 3: MAYADSPENAIAVIKQRTALMNRCLSQHKLMESLQHTSIMLTELRNPNLSPKKYYELYVIIFDSLTNLSTYLIENHPQNHHLADLYELVQYTGNVVPRLYLMITVGTSYLTFNEAPKKEILKDMIEMCRGVQNPIRGLFLRYYLSQRTKELLPEDDPSFNSQFIMNNFIEMNKLWVRLQHQGPLRERETRTRERKELQILVGSQLVRLSQIIDDNFQMYKQDILPTILEQVIQCRDLVSQEYLLDVICQVFADEFHLKTLDTLLQTTLHLNPDVSINKIVLTLVDRLNDYVTRQLEDDPNATSTNAYLDMDVFGTFWDYLTVLNHERPDLSLQQFIPLVESVIVLSLKWYPNNFDNLNKLFELVLQKTKDYGQKNISLESEHLFLVLLSFQNSKLQLTSSTTAPPNSPVTSKKHFIFQLISQCQAYKNILALQSISLQKKVVNEIIDILMDREVEEMADNDSESKLHPPGHSAYLVIEDKLQVQRLLSICEPLIISRSGPPANVASSDTNVDEVFFNRHDEEESWILDPIQEKLAHLIHWIMNTTSRKQTMKNKIQFSLEAQLEILLLIKSSFIKGGINVKYTFPAIITNFWKLMRKCRMIQEYLLKKRPDNKTLLSHYSNLLKQMFKFVSRCINDIFNSCNNSCTDLILKLNLQCAILADQLQLNEISYDFFSQAFTIFEESLSDSKTQLQALIYIAQSLQKTRSLYKEAYYDSLIVRCTLHGSKLLKKQDQCRAVYLCSHLWWATEISNIGEEEGITDNFYRDGKRVLECLQRSLRVADSIMDNEQSCELMVEILNRCLYYFIHGDESETHISIKYINGLIELIKTNLKSLKLEDNSASMITNSISDLHITGENNVKASSNADDGSVITDKESNVAIGSDGTYIQLNTLNGSSTLIRGVVATASGSKLLHQLKYIPIHHFRRTCEYIESQREVDDRFKVIYV
Take B2: the “stoichiometry N” value in “native gel or EMSA” is 2 and 4.

B3: retromer^PISA-mClover (Vps26/Vps29-mClover/Vps35^PISA) (complex, S. cerevisiae)
chain 1: B2 chain 1
chain 2: B2 chain 2
chain 3: B2 chain 3 with D671A, L722A, K726A, R775A
Take B3: the binding result in the data set “native gel or EMSA” was “binds”.

One may read the stoichiometry N as the number of molecules, sites or subunits per partner or assembly.
